Reference: US20260183405A1, “SMALL MOLECULE-DRUG-CONJUGATES CLEAVABLE IN A TUMOR MICROENVIRONMENT” (priority 2022, published 2026)

Experiment: Pharmacokinetics in rat after intravenous administration
Assay type: in vivo
Conditions: plasma, male rats, intravenous bolus 0.5 mg/kg; for clearance: read-out: CL plasma; for Vd: read-out: VSS
Method: Male rats (n=3) were given an intravenous 0.5 mg/kg bolus dose of test article dissolved in plasma with 1% DMSO and 2% ethanol. Serial blood samples were collected up to 24 hours post-dose. Plasma was harvested from blood samples and stored frozen until sample analysis. Test article plasma concentrations were analyzed by LC/MS/MS. Pharmacokinetic parameters were calculated using non-compartmental analysis.

Row | SMILES | AUC | half-life | clearance | Vd
1 | CCc1c2c(nc3ccccc13)-c1cc3c(c(=O)n1C2)COC(=O)[C@@]3(CC)OC(=O)[C@@H](NC(=O)[C@@H]1CCCN1C(=O)[C@H](CC(=O)O)NC(=O)CCOCCOCCOCCNC(=O)NCCCC[C@H](NC(=O)N[C@@H](CCC(=O)O)C(=O)O)C(=O)O)C(C)C [Compound 5, tetrasodium (4S)-4,11-diethyl-3,14-dioxo-3,4,12,14-tetrahydro-1H-pyrano[3′,4′:6,7]indolizino[1,2-b]quinolin-4-yl 1-[(2S,23S,27S)-23,27,29-tricarboxylato-2-(carboxylatomethyl)-4,17,25-trioxo-7,10,13-trioxa-3,16,18,24,26-pentaazanonacosanan-1-oyl]-L-prolyl-L-valinate] | 1000 to 10000 ng·h/mL | 60 to 300 min | 0.5 to 5 mL/min/kg | 0.1 to 0.3 L/kg
2 | CCc1c2c(nc3ccccc13)-c1cc3c(c(=O)n1C2)COC(=O)[C@@]3(CC)OC(=O)[C@@H](NC(=O)[C@@H]1CCCN1C(=O)[C@H](CC(=O)O)NC(=O)CCOCCOCCOCCNC(=O)CCC(=O)Nc1cccc2c(C(=O)NCC(=O)N3CC(F)(F)C[C@H]3C#N)ccnc12)C(C)C [Compound 6, sodium (4S)-4,11-diethyl-3,14-dioxo-3,4,12,14-tetrahydro-1H-pyrano[3′,4′:6,7]indolizino[1,2-b]quinolin-4-yl 1-[(2S)-2-(carboxylatomethyl)-20-{[4-({2-[(2S)-2-cyano-4,4-difluoropyrrolidin-1-yl]-2-oxoethyl}carbamoyl)quinolin-8-yl]amino}-4,17,20-trioxo-7,10,13-trioxa-3,16-diazaicosanan-1-oyl]-L-prolyl-L-valinate] | < 1000 ng·h/mL | < 30 min | > 5 mL/min/kg | 0.3 to 0.9 L/kg
3 | CCCNC(=O)Nc1cccc(S(=O)(=O)Nc2cccc([C@@H](CC(=O)O)NC(=O)Nc3ccc(NC(=O)NCCOCCOCCOCCC(=O)NCCCC[C@H](NC(=O)CCOCCOCCOCCNC(=O)Nc4ccc(NC(=O)N[C@H](CC(=O)O)c5cccc(NS(=O)(=O)c6cccc(NC(=O)NCCC)c6)c5)cc4)C(=O)NCCOCCOCCOCCC(=O)N[C@@H](CC(N)=O)C(=O)N4CCC[C@H]4C(=O)N[C@H](C(=O)NCCCN(C(=O)CO)[C@@H](c4cc(-c5cc(F)ccc5F)cn4Cc4ccccc4)C(C)(C)C)C(C)C)cc3)c2)c1 [Compound 18] | 100000 to 500000 ng·h/mL | 600 to 2400 min | 0.02 to 0.5 mL/min/kg | 0.01 to 0.1 L/kg
4 | CCCNC(=O)Nc1cccc(S(=O)(=O)Nc2cccc([C@@H](CC(=O)O)NC(=O)Nc3ccc(NC(=O)NCCOCCOCCOCCC(=O)NCCCC[C@H](NC(=O)CCOCCOCCOCCNC(=O)Nc4ccc(NC(=O)N[C@H](CC(=O)O)c5cccc(NS(=O)(=O)c6cccc(NC(=O)NCCC)c6)c5)cc4)C(=O)NCCOCCOCCOCCC(=O)N[C@@H](CC(=O)O)C(=O)N4CCC[C@H]4C(=O)N[C@H](C(=O)N[C@@H](CCN(C(=O)CO)[C@@H](c4cc(-c5cc(F)ccc5F)cn4Cc4ccccc4)C(C)(C)C)C(=O)NC)C(C)C)cc3)c2)c1 [Compound 27] | 100000 to 500000 ng·h/mL | 600 to 2400 min | 0.02 to 0.5 mL/min/kg | 0.01 to 0.1 L/kg
